2 molecules from PMC10533412, “Phosphoantigens glue butyrophilin 3A1 and 2A1 to activate Vγ9Vδ2 T cells” (Nature, 2023) can be followed below.

The target of test [1] is BTN3A1 B30.2 domain (human) (UniProt O00481).
Test [2] has as its target BTN3A1 B30.2 domain, O00481. The test is described as follows: ITC. Particulars: chain shown with the change; with HMBPP.

BTN3A1 B30.2 domain, O00481, sequence (O00481 328-513): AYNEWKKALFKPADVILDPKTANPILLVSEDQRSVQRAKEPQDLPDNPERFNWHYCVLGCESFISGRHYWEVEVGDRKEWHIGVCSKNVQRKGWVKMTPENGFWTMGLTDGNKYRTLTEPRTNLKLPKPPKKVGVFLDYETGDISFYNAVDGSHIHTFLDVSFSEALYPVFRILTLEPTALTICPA
BTN3A1 B30.2 domain (human), sequence (O00481 328-513): as above

B1: BTN2A1 B30.2 domain (domain or fragment)
chain: EELRWRRTFLHAVDVVLDPDTAHPDLFLSEDRRSVRRCPFRHLGESVPDNPERFDSQPCVLGRESFASGKHYWEVEVENVIEWTVGVCRDSVERKGEVLLIPQNGFWTLEMHKGQYRAVSSPDRILPLKESLCRVGVFLDYEAGDVSFYNMRDRSHIYTCPRSAFSVPVRPFFRLGCEDSPIFICPALTGANGVTVPEEGLTLHRVGTHQSL
In turn, B1 had an AFM-SCFS binding force between a Vγ9Vδ2 T cell and a MIA PaCa-2 cell, without and with HMBPP treatment in test [1] of 1550 pN.

B2: BTN2A2 B30.2 domain, Q8WVV5 W374R; M506T (protein)
chain: EELRWRRTFLHAADVVLDPDTAHPELFLSEDRRSVRRGPYRQRVPDNPERFDSQPCVLGRESFASGKHYWEVEVENVMVWTVGVCRHSVERKGEVLLIPQNGFWTLEMFGNQYRALSSPERILPLKESLCRVGVFLDYEAGDVSFYNMRDRSHIYTCPRSAFTVPVRPFFRLGSDDSPIFICPALTGASGVTVPEEGLKLHRVGTHQSL
Regarding B2, the Kd in test [2] came to 189 nM.

For orientation: Kd means the constant that tells how readily two partners part at equilibrium.
